Laboratory results from the supplement of paper PMC10724198.
± gives the standard deviation of the averaged measurements.

Test system: Saccharomyces cerevisiae
Assay: protein stability index of tFT-peptide fusion (C-terminal peptide) (PSI (0-1 scale)); higher = more stable (slower turnover)
Conditions: genetic background: wild type; temperature: 30 C
Protocol: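 Multiplexed protein stability (MPS) profiling in S. cerevisiae. Random 12-aa peptides (tFT-X12 library) are fused to the C-terminus of a sfGFP-mCherry tandem fluorescent timer, after mCherry and a GGGS linker. Cells are FACS-sorted into 8 mCherry/sfGFP bins and deep-sequenced. The protein stability index (PSI) is the read-weighted bin average, scaled from 0 (unstable) to 1 (stable). Only peptides with >10 reads are reported; cells were grown at 30 °C in SC-His with glucose.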
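Further: PSI is a weighted mean of sequencing reads over stability bins, variants kept only with over 10 reads, mCherry proximal and sfGFP distal, peptide attached via GGGS linker.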

| Sequence | protein stability index |
| --- | --- |
| EVLTSRWCGLIS | 0.744 ± 0.074 |
| EVMAIISTRILG | 0.647 ± 0.07 |
| EVNGNYNIVGKA | 0.652 ± 0.07 |
| EVRDLSQFMKRY | 0.727 ± 0.0092 |
| EVRGKSVTIFVR | 0.57 ± 0.025 |
| EVTAQLCADKEP | 0.564 ± 0.12 |
| EVTDSVKTEPAT | 0.6463 ± 0.0043 |
| EVTEIAQFRDKR | 0.7 ± 0.017 |
| EVWGGVCWRAGG | 0.735 ± 0.12 |
| EVYPAEADVFGG | 0.69 ± 0.052 |
| EWEKPEDLHKPA | 0.659 ± 0.058 |
| EWGGGGGGGKCV | 0.733 ± 0.054 |
| EWQWGWGGVRRD | 0.765 ± 0.032 |
| EWTTTVLGGQLR | 0.696 ± 0.027 |
| EWVPDIANLRRR | 0.752 ± 0.16 |
| EYFKTKQKKKKE | 0.753 ± 0.12 |
| EYGECWCWSSWR | 0.732 ± 0.059 |
| FACAGPAAFHSL | 0.597 ± 0.014 |
| FADTALLCELLR | 0.687 ± 0.033 |
| FAKELSLRSFSA | 0.814 ± 0.04 |
| FALCLPPPSPPA | 0.761 ± 0.026 |
| FALFQSFCFFCF | 0.564 ± 0.061 |
| FALTHSRSPSTS | 0.799 ± 0.1 |
| FASSSDSLWRGI | 0.679 ± 0.014 |
| FATPDGFVSLWF | 0.774 ± 0.14 |
| FAVLSFRFPGGL | 0.693 ± 0.099 |

| Sequence | protein stability index |
| --- | --- |
| FAVSTVCWCCGL | 0.647 ± 0.041 |
| FCGGYHATVKMR | 0.68 ± 0.015 |
| FCNAVLSCFSIF | 0.597 ± 0.0068 |
| FCVVVAIVPLWG | 0.512 ± 0.013 |
| FCWVVFHSGISS | 0.713 ± 0.085 |
| FCYWCLGWGVGL | 0.692 ± 0.059 |
| FELYGVGLGTCA | 0.633 ± 0.17 |
| FEVAPAPLDQVV | 0.653 ± 0.028 |
| FFCTHFQLLFSP | 0.641 ± 0.019 |
| FFDKLEIRALVV | 0.6302 ± 0.00098 |
| FFERRLGYYSRM | 0.85 ± 0.09 |
| FFFLCLPSSFAF | 0.614 ± 0.0098 |
| FFGFLLFCSRFS | 0.516 ± 0.016 |
| FFMEKPSSGCTS | 0.685 ± 0.017 |
| FFPLSSLIAFLP | 0.6815 ± 0.0025 |
| FFPPLPATSVPA | 0.561 ± 0.1 |
| FFSFILGGFLLG | 0.6682 ± 0.00082 |
| FFSSHPCYFSTF | 0.69 ± 0.072 |
| FFSVLSAISFFF | 0.628 ± 0.06 |
| FFVGGVTDLFVS | 0.724 ± 0.0092 |
| FFWTTPRFPFPS | 0.725 ± 0.021 |
| FFYFSLSLSHFC | 0.496 ± 0.025 |
| FGAATLFLLAPC | 0.55 ± 0.02 |
| FGASYLGSLLDV | 0.699 ± 0.057 |
| FGCGLYPLRVLH | 0.604 ± 0.034 |
| FGCISAGLGWMY | 0.721 ± 0.048 |

| Sequence | protein stability index |
| --- | --- |
| FGCLGVLGAGRC | 0.713 ± 0.034 |
| FGGGGGGVGLAV | 0.65 ± 0.033 |
| FGGGSHRRGRCR | 0.68 ± 0.018 |
| FGGSTPVLKPTQ | 0.719 ± 0.019 |
| FGLWGFGRPRGW | 0.721 ± 0.031 |
| FGQERLHMSILF | 0.692 ± 0.029 |
| FGSLRLQITVNP | 0.557 ± 0.098 |
| FGTSLLPLPPPD | 0.601 ± 0.025 |
| FGVQTFIGPTIV | 0.677 ± 0.012 |
| FGVSIGELAGRH | 0.686 ± 0.035 |
| FGVTGLGVGLVW | 0.639 ± 0.0066 |
| FHFLCLVGSFRG | 0.528 ± 0.037 |
| FIGFGCGLVWSV | 0.613 ± 0.019 |
| FILERSLLSLQG | 0.678 ± 0.18 |
| FILLFGCFGFFC | 0.557 ± 0.051 |
| FIRDKQTSFDIR | 0.68036 ± 0.00024 |
| FKLVGRHLHSFD | 0.652 ± 0.06 |
| FKRLSTDCSVNS | 0.687 ± 0.061 |
| FKSVPTLPHPSP | 0.6701 ± 0.0045 |
| FLASFSSFMFYL | 0.591 ± 0.016 |
| FLDPFLTRRCVF | 0.694 ± 0.055 |
| FLFADVSSPSSI | 0.725 ± 0.038 |
| FLGGWVCGWPQF | 0.772 ± 0.15 |
| FLISSGPSVSVL | 0.623 ± 0.026 |
| FLLLSPARLVLL | 0.5529 ± 0.0021 |
| FLLYSSSAIPEH | 0.759 ± 0.065 |

| Sequence | protein stability index |
| --- | --- |
| FLRISPPPPSPP | 0.676 ± 0.077 |
| FLRLFLQQVEFL | 0.7157 ± 0.0026 |
| FLSFIADVTGKR | 0.707 ± 0.019 |
| FLSFLFTGFIQL | 0.595 ± 0.017 |
| FLSGPCLLSFAS | 0.679 ± 0.12 |
| FLVFRFPFGFSC | 0.566 ± 0.025 |
| FLVNVIRSCKGE | 0.685 ± 0.059 |
| FLWSSLYYARLD | 0.75 ± 0.032 |
| FLYDPVMLGLAC | 0.469 ± 0.053 |
| FMLGYIRPKWGG | 0.714 ± 0.12 |
| FMRASPSACTCL | 0.668 ± 0.094 |
| FMSMSYDEWAYL | 0.721 ± 0.064 |
| FMYRDVPFLRAP | 0.697 ± 0.03 |
| FNHYPSPPQRFY | 0.685 ± 0.072 |
| FNIIHKKNTKEI | 0.778 ± 0.03 |
| FNPRIGGDCRSA | 0.678 ± 0.031 |
| FNRTRRLPLDSL | 0.7018 ± 0.0053 |
| FPAYPLPPPAPN | 0.697 ± 0.067 |
| FPFDMTSTEMSL | 0.639 ± 0.096 |
| FPFGICMISCDG | 0.628 ± 0.02 |
| FPGSLVPVASVP | 0.71 ± 0.089 |
| FPHPSPPPFPPP | 0.698 ± 0.026 |
| FPLPPPPPAVFL | 0.673 ± 0.086 |
| FPLPPPPSLSTP | 0.656 ± 0.036 |
| FPLPSPPRPFSF | 0.761 ± 0.041 |
| FPPCSPPPPAPL | 0.625 ± 0.05 |

| Sequence | protein stability index |
| --- | --- |
| FPPLLFPPTPTR | 0.842 ± 0.027 |
| FPPLTRPSPIYP | 0.726 ± 0.03 |
| FPPPCVLPLPRT | 0.723 ± 0.02 |
| FPPPPPHTPSSA | 0.694 ± 0.057 |
| FPPTALESMPSS | 0.737 ± 0.042 |
| FPRLPSRPLSSL | 0.6898 ± 0.0033 |
| FPSFSLIFFSLI | 0.489 ± 0.074 |
| FPSLLFSSPSAF | 0.7 ± 0.038 |
| FPSPLLPYPLLP | 0.747 ± 0.052 |
| FPVGVRLNQNET | 0.718 ± 0.017 |
| FPVSPFPPPPSS | 0.742 ± 0.16 |
| FQAYPPFSLVPA | 0.5533 ± 0.0029 |
| FQEDSPVSQRYP | 0.645 ± 0.041 |
| FQGALFTEVVES | 0.716 ± 0.043 |
| FQNFTLSQEQSE | 0.717 ± 0.014 |
| FRCPGFYVVIFP | 0.582 ± 0.0092 |
| FRDLRSSVLVLP | 0.6599 ± 0.0058 |
| FRFVFFFRSGLV | 0.595 ± 0.063 |
| FRIVLIRASDPS | 0.625 ± 0.032 |
| FRLLLFPLPLSP | 0.494 ± 0.011 |
| FRLPTCLLLFPF | 0.594 ± 0.098 |
| FRPPVPPPPVLP | 0.683 ± 0.012 |
| FRSFLDHPRSPC | 0.729 ± 0.029 |
| FRVFLGHLITRK | 0.727 ± 0.039 |
| FRVKVFGLPFWL | 0.509 ± 0.028 |
| FSAFFLFMFCFL | 0.488 ± 0.025 |

| Sequence | protein stability index |
| --- | --- |
| FSCKGSYIFTRR | 0.651 ± 0.012 |
| FSCLRSINRDVG | 0.702 ± 0.044 |
| FSETDSWCQARS | 0.717 ± 0.013 |
| FSGGPSTPPTWS | 0.817 ± 0.01 |
| FSHPQPLLPFPV | 0.662 ± 0.0094 |
| FSISCFRVSSDF | 0.761 ± 0.032 |
| FSKVLCSIVRGR | 0.655 ± 0.015 |
| FSLFSLPFPFPL | 0.7752 ± 0.0015 |
| FSLLTFPPSSPT | 0.716 ± 0.016 |
| FSLPLSPRGDCP | 0.6991 ± 0.0014 |
| FSMHFARFFSCS | 0.687 ± 0.061 |
| FSPPTLSLPGPI | 0.721 ± 0.0083 |
| FSPRHSPFSVAR | 0.803 ± 0.05 |
| FSSGLAEVGVAR | 0.676 ± 0.074 |
| FSSLHLTHELLS | 0.664 ± 0.061 |
| FSTIWDRLLLTG | 0.668 ± 0.083 |
| FSVGSPLSSPGI | 0.713 ± 0.04 |
| FSVHVPPFPPVP | 0.654 ± 0.038 |
| FSYPPSLVPFCS | 0.702 ± 0.019 |
| FTACSVCVETMN | 0.678 ± 0.17 |
| FTGYPKHTRLPY | 0.687 ± 0.017 |
| FTKAVQVFLASV | 0.635 ± 0.057 |
| FTNDMSSGRVAI | 0.692 ± 0.016 |
| FTPPPPPPPPVL | 0.6691 ± 0.0051 |
| FVAGFAGGAVGV | 0.72 ± 0.0078 |
